In patent US7919464B2, “Use of a peptide that interacts with αvβ3 integrin of endothelial cell” (Kyungpook National University Industry-Academic Cooperation …, priority 2003, dated 2011):

Legend:
HUVECs cell membrane = experiment: Binding of biotin-βig-h3 to HUVECs surface (Western immunoblotting); design: species or system human; conditions: biotin-βig-h3, 4° C. 5 hours
Experimental: To confirm that HUVECs adhesion that is mediated by βig-h3 depends on αvβ3 integrin, the present inventors tested the binding affinity of βig-h3 in the presence of an antibody that specifically blocks the function of the integrin. This binding assay was performed according to the method described by Maile, L. A., et al., J. Biol. Chem., […].
First, HUVECs were suspended in medium at a density of 1×10^5 cells/ml. 1 ml of the cell suspension was preincubated with anti-αvβ3 antibody (LM609) or anti-αvβ5 antibody (P1F6) at 37° C. for 30 minutes. Thereafter, the preincubated cells were incubated with biotinylated βig-h3 (hereinafter, referred to as “biotin-βig-h3”) in a serum-free medium containing 0.1% BSA at 4° C. for 5 hours. The biotin-βig-h3 was added at concentrations of 1×10^−10, 1×10^−9 and 5×10^−9 μm, respectively. Then, the cells were washed three times with PBS buffer (pH 7.4), and dissolved at 4° C. in ice-cold buffer A (10 mM Tris-Cl, pH 7.4, 150 mM NaCl, 1% Nonidet P-40, 1% sodium deoxycholate, 0.5% SDS, 0.02% sodium azide, 1 mM EDTA, 1 mM phenylmethylsulfonyl fluoride). The cell lysates were clarified by centrifugation at 13,000 rpm for 30 minutes at 4° C. Equal amounts of protein were then separated by SDS-PAGE, 8% gel. The amount of biotin-βig-h3 was determined by Western immuno-blotting. […]

HUVECs = HUVECs migration assay in transwell plate coated with βig-h3; format: cell-based, human; conditions: 10 μg/ml βig-h3 His-β-b coated; 6-8 hours; data not shown
Experimental: Firstly, to examine whether βig-h3 is involved in the migration of endothelial cells, the present inventors performed cell migration assay. The cell migration assay was performed in a transwell plate (8 μm pore size, Costar, Cambridge, Mass.). The undersurface of the membrane was coated with the recombinant βig-h3 His-β-b protein (10 μg/ml) prepared in Example 1 at 4° C., and then, blocked for 1 hour at room temperature with PBS buffer containing 2% BSA. Meanwhile, HUVECs were added with an anti-αvβ3 antibody (LM609) or an anti-αvβ5 antibody (P1F6) and preincubated at 37° C. for 30 minutes. A control was added with mouse IgG. Then, the HUVECs preincubated with the antibody were suspended in medium at a density of 3×10^5 cells/ml, and 0.1 ml of the cell suspension was added to the upper compartment of the filter. The cells were allowed to migrate at 37° C. for 6-8 hours.
Migration was terminated by removing the cells from the upper compartment of the filter with a cotton swab. The filters were fixed with 8% glutaraldehyde and stained with crystal violet. The extent of cell migration was determined by light microscope, and within each well, cell counting was done in nine randomly selected fields HPF (Microscopic high power fields, ×200).
Then, the present inventors examined whether the migration of endothelial cells is inhibited by the YH18 synthetic peptide. […]

B1: βig-h3: recombinant human βig-h3 protein that expresses all of four fas-1 domains; biotinylated form used in binding assay (protein)
chain: YQRKICGKSTVISYECCPGYEKVPGEKGCPAALPLSNLYETLGVVGSTTTQLYTDRTEKLRPEMEGPGSFTIFAPSNEAWASLPAEVLDSLVSNVNIELLNALRYHMVGRRVLTDELKHGMTLTSMYQNSNIQIHHYPNGIVTVNCARLLKADHHATNGVVHLIDKVISTITNNIQQIIEIEDTFETLRAAVAASGLNTMLEGNGQYTLLAPTNEAFEKIPSETLNRILGDPEALRDLLNNHILKSAMCAEAIVAGLSVETLEGTTLEVGCSGDMLTINGKAIISNKDILATNGVIHYIDELLIPDSAKTLFELAAESDVSTAIDLFRQAGLGNHLSGSERLTLLAPLNSVFKDGTPPIDAHTRNLLRNHIIKDQLASKYLYHGQTLETLGGKKLRVFVYRNSLCIENSCIAAHDKRGRYGTLFTMDRVLTPPMGTVMDVLKGDNRFSMLVAAIQSAGLTETLNREGVYTVFAPTNEAFRALPPRERSRLLGDAKELANILKYHIGDEILVSGGIGALVRLKSLQGDKLEVSLKNNVVSVNKEPVAEPDIMATNGVVHVITNVLQPPANRPQERGDELADSALEI
HUVECs cell membrane
  binding of βig-h3 to HUVECs surface: bound to HUVECs surface in a dose-dependent manner
HUVECs
  migration of HUVECs in transwells whose undersurface was coated with βig-h3: enhanced
